Results: the supplement of paper PMC12042874
± gives the uncertainty stated by the source.

Assay: amyloid nucleation score (Sup35N fusion, yeast selection) (log enrichment); library NNK3; higher = more nucleation; inactive = no reads after selection
In short: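 Sup35N was fused to peptides of 20 random codons and expressed in psi-negative yeast, which were induced with 100 μM copper sulfate for 24 hours and then grown on medium lacking adenine and uracil for 7 days at 30°C. Plasmid inserts from input and output were sequenced on Illumina. The nucleation score is the DiMSum log enrichment of output over input reads, centred on the mode score of non-aggregating sequences. Sequences with under 100 input reads were left out, and random libraries had three technical output replicates.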

Substance | amyloid nucleation score
LLYARVIRRMCPKVVLFLSD | inactive
LLYSLWQSHLMLTGCNM | inactive
LMKFFINVKVSGGVTCVRIN | inactive
LMLANVNAA | inactive
LMLEISIHLLLYRVSISGYF | inactive
LMLIFRLNCG | 1.62 ± 0.097
LMLILCY | inactive
LMQFLAQLTSLSLSLLEVIW | inactive
LMRLLLNYWSITAIILL | inactive
LMSTKVVFEL | 0.076 ± 0.19
LNADVTMLKSNGVMTIT | inactive
LNCATFHYLTAVILMEYCRT | inactive
LNCGSAFRDVFTVMALNTRV | -0.14 ± 0.88
LNCMVITFVCFLVSNSIGGD | 1.71 ± 0.11
LNDDRISSGYAASIVKGLLT | -0.873 ± 1.4
LNDGALDGQSTDALMGMEMR | inactive
LNFAHAKMFSFITMVVY | inactive
LNFCFHYCI | 1.54 ± 0.12
LNLLSSSMIWSFVIGNRRVY | inactive
LNLMD | inactive
LNLSLVNCLMAVTCSLFL | 1.44 ± 0.13
LNLTGVISNLRVVNGQ | inactive
LNLVVRHFPTNR | inactive
LNNSEWSLS | inactive

Substance | amyloid nucleation score
LNQGHYSVDLSSATGTVTTF | inactive
LNRANNGVVYQMGVRDFQSS | inactive
LNRAPTAQLSGDCRVGVQAT | inactive
LNRSSFHLELITSTCKVFLV | inactive
LNSFSPGKNDCS | inactive
LNVDNCAYVFSDDNFMTDVN | inactive
LNWMRFYVMDMVTFGVWSDQ | 0.152 ± 0.31
LPAEMELVWHRRMNLP | inactive
LPCPACKVLNDKNSSKCENY | inactive
LPGNVFDVPLFNLDVYWVTR | inactive
LPRLFVVDYPSQ | inactive
LPSLQTG | inactive
LQGQHDAHWQSCSRLSECSQ | inactive
LQHFVR | inactive
LQISSMIFELYIFDLMMVM | inactive
LQKCNWRRMVGRNQCWGKAR | 0.89 ± 0.19
LQLLENQSNAIYWHGGNESD | inactive
LQLLRIGHWMLPCCWRILLV | inactive
LQPCKNMSTLSQNPTLRCPF | inactive
LQPGMDFSCRFKRLTLNMVH | -0.38 ± 0.88
LQSCSCAGLFPDL | inactive
LQSYRDLQTRFFLFSAHTSL | inactive
LQTVNLLVPACI | inactive
LRATNRGVMLNRFVSTMDKS | inactive

Substance | amyloid nucleation score
LRCVGGSGSEGLVLSRMVTG | inactive
LRDFRKVSPAKVIDNRFQTD | 0.827 ± 0.17
LREHWEELVLGFWFPKVCCF | inactive
LREKND | inactive
LREMGLHYWGD | inactive
LRGTMGEV | inactive
LRIGNVVCLKLSFSFNRYLW | 0.352 ± 0.75
LRLCGAMPDRCLW | inactive
LRLGRTVLYPIVLWLPYCFD | inactive
LRLVKYNAGIHYGSVGPQFL | inactive
LRMWERMCAVSL | inactive
LRRRSLDHKSGSYLVTG | inactive
LRRYALLVNAAQKEMRYSSS | -0.616 ± 1.1
LRSFGYRRQ | inactive
LRSKECIKMALKWLCKKYYW | inactive
LRSLYSTINFKMCWICEAAS | inactive
LRSRKWSSTVSCEYSANGLR | inactive
LRTLALPSSVFVRDVHYY | 0.987 ± 0.15
LRYSVEAFTRDDLTESSQVV | inactive
LSCNDYNDG | inactive
LSDCRSWVPCGRHCSF | inactive
LSDFMLVAILTV | inactive
LSELVLSWMQMDSCTRFDMC | inactive
LSEVRLRRQLLVGACDGGYN | inactive

Substance | amyloid nucleation score
LSGPRYLVVKSGCACRDSFR | inactive
LSGYYEQVVWVNRSSNSTMN | inactive
LSIDMSLYLCSTFYFK | 2.31 ± 0.06
LSIYGDPAYCALFAYECLWL | 1.93 ± 0.06
LSIYYEFFLSETNFCYMLRC | 0.766 ± 0.15
LSKNSEILIYAYVLETFSCS | inactive
LSKPFPSMHFSRRWNRNGLW | inactive
LSLHEGWSVNCVFCLLLTVW | 2.42 ± 0.077
LSLTRNSH | inactive
LSLTYVSPHA | 0.968 ± 0.17
LSLVCNCRSTCNCPGLSL | inactive
LSLYPFMWKYIIGAGKWLFL | inactive
LSMDLPNQSLDKVSKRHSAN | inactive
LSMFGGNASALL | inactive
LSNGDAKTSRTASVRCLRYA | inactive
LSRDGVFVPPTSRSYHPRLK | inactive
LSSCMWDGPFFNCRVMKLSG | inactive
LSSWEIVSSLSHWNVYVIAR | inactive
LSVRSTLARLPSGVIMMRSM | inactive
LSYFYKVPLDTAYMW | 1.07 ± 0.12
LSYNTVDVWPLAFNFWWMIS | 0.199 ± 0.44
LTCSWIICLSMSYLTSRYNR | 1.83 ± 0.1
LTELSETVPVVKRWKCLDYF | -0.807 ± 1.9
LTFLVRDCCTCSICNDGPSR | 3.08 ± 0.079

Substance | amyloid nucleation score
LTFVHNWFDPLCLHRNSAMN | inactive
LTGACVLNR | 0.106 ± 1
LTGLEMLYYTCFNVCTRKCV | inactive
LTHPCLMPFMLVVTRLYMAA | -1.03 ± 1.8
LTIRPFEVGRESESGFVLIS | inactive
LTNGRNTYFLLSRYYFGTTS | inactive
LTNSYLDMLRM | inactive
LTRDVCFN | 0.312 ± 0.54
LTSMI | inactive
LTVLFTVCWVGTRAYGLIGG | inactive
LTYTYGVGVMIGIITHRLVC | inactive
LVALVRECT | inactive
LVDVDVHR | -0.994 ± 2.5
LVFPPAY | inactive
LVGHEFTAGSNYDSDLGTV | inactive
LVHIGFWCEVVQPLSCTDTS | 0.028 ± 0.65
LVIVFCMVFLTFIF | 0.545 ± 0.13
LVMHMRLAWRECDHVSKQMR | 0.883 ± 0.15
LVPVLNGVLSKLRSFNFHSG | inactive
LVSLWLDRD | inactive
LVVLIFYYV | inactive
LVVLLFYFCYSHGYDEKVQW | 0.996 ± 0.12
